For this assay, the target named is bril-ACKR3WT (human) (UniProt P25106). As to the kind of experiment: flow cytometry on cells. (In general: In flow cytometry, cells or beads pass a laser one at a time.)

Our source for the dissociative half-life values is publication PMC7063449.

Sequence of bril-ACKR3WT (human) (P25106 2-332): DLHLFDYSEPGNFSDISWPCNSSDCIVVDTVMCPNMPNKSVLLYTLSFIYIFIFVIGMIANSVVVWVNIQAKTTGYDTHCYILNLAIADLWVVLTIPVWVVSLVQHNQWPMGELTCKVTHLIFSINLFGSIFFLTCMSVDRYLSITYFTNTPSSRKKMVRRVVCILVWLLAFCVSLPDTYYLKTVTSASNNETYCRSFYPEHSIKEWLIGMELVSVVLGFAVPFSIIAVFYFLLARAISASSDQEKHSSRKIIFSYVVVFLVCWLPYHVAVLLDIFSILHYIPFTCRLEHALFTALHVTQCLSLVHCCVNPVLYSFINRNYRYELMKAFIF

“HA-tagged CXCL12P2G (from UniProt P48061 22-93) (ligand)” registered a dissociative half-life of 7.2 min.
